{
  "source": "patent US20250289893A1",
  "about": "(OXFORD UNIVERSITY INNOVATION, published 2025)",
  "key": {"[1]": {"target": "Chinese variant CD1a protein (human) (UniProt P06126)", "sequence (P06126 18-295, change not shown)": "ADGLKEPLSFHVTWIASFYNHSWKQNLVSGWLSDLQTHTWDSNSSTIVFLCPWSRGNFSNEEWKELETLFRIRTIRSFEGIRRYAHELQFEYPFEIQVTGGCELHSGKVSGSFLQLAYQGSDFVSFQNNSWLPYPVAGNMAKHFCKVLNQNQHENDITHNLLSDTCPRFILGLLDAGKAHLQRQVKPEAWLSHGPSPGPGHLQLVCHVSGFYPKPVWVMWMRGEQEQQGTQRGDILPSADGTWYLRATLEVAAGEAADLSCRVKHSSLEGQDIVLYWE", "experiment": "ELISA, 0.01 µg/ml antibody"}, "[2]": {"target": "T1, chimeric CD1a pool B protein [human CD1a lipid binding domain, mouse CD1d Ig domain] (human; mouse, UniProt P06126 18-201; P11609 205-297, limits assumed)", "T1 sequence (P06126 other isoform, or with tags, fused parts or gaps mutant limits assumed)": "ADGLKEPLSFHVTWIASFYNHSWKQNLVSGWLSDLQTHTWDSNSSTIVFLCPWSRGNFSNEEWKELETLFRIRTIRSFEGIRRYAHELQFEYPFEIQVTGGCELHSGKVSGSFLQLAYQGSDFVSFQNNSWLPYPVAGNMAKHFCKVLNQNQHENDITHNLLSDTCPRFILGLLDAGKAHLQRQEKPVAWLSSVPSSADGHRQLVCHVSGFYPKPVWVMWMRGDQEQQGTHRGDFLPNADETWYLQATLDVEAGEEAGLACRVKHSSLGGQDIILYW", "experiment": "ELISA, 10 µg/ml antibody", "experimental": "(§1) CD1a-specific antibodies were identified by ELISA. […] 20 μl/well of peroxidase-conjugated goat anti-species IgG Fc-specific F(ab′)2 fragment (Jackson ImmunoResearch), diluted 1:5000 in block buffer was added and incubated at room temperature for 1 hour, followed by washing with wash buffer.\n(§2) The antibodies were titrated through a dilution series and compared to a control rabbit IgG antibody. […] Data shown for purified antibodies."}, "[3]": {"target": "T2, Cynomolgus monkey CD1a protein (Cynomolgus monkey)", "T2 chain": "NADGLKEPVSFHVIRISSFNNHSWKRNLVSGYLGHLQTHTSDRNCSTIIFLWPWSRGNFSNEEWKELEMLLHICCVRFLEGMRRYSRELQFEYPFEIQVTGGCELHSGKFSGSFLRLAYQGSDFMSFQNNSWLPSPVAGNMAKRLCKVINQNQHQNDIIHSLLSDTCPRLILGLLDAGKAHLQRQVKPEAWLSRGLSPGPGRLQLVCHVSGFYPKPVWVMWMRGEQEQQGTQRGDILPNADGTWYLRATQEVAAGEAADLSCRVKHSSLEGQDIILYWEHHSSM", "experiment": "ELISA, 10 µg/ml antibody"}, "[4]": {"target": "T3, human CD1a protein (pool B) (human, UniProt P06126 18-295, limits assumed)", "T3 construct": "Recombinant protein of the ELISA (coated) and the Biacore T200 titration; whole entry named; also called human CD1a pool B; full length CD1a", "T3 sequence (P06126 18-295 limits assumed)": "as the sequence (P06126 18-295, change not shown) above", "experiment": "ELISA, 0.1 µg/ml antibody", "experimental": "as §1\nThe antibodies were titrated through a dilution series and compared to a control rabbit IgG antibody."}, "[5]": {"target": "T1, chimeric CD1a pool B protein [human …", "experiment": "ELISA, 31.6 µg/ml antibody", "experimental": "as §1, §2"}, "[6]": {"target": "T4, human CD1b expressed on HEK-293 cells (human, UniProt P29016 18-333; P61769 21-119)", "T4 construct": "also called HEK - CD1b", "experiment": "flow cytometry, HEK-293 cells", "experimental": "(§3) Binding to proteins expressed on HEK, C1R and MOLT4 cell lines was assessed. […] The C1R-CD1a, C1R-empty vector and MOLT4 cell lines were washed in 1×PBS on the day required. All cell lines were counted and resuspended in 1×PBS and then stained for 30 minutes at 37° C. using the DiI or DiO cellular stains (Invitrogen). Cells were washed with flow cytometry buffer (1% bovine serum albumin, 2 mM EDTA and 0.1% sodium azide in PBS) before mixing 2 DiI-stained and DiO-stained populations together. The cells (20 μl/well) were then added to dilutions of antibody sample (B cell culture supernatant, TAP supernatant, clone supernatant, purified antibody solution) (20 μl/well) and incubated for 1 hour at 4° C. in a flow cytometry assay plate, before being washed with flow cytometry buffer. 10 μl/well of Alexafluor647-conjugated goat anti-species IgG Fc-specific F(ab′)2 fragment (Jackson ImmunoResearch), diluted 1:2500 in flow cytometry buffer, was added and incubated at 4° C. for 30 minutes, followed by washing with wash buffer. The fluorescence intensity was then measured on an iQue screener PLUS.\n(§4) HEK-293 cells were transiently transfected with human CD1a, CD1b, CD1c or CD1d and co-transfected with human β2M."}, "[7]": {"target": "T5, human CD1c expressed on HEK-293 cells (human, UniProt P29017 18-333; P61769 21-119)", "T5 construct": "also called HEK - CD1c", "experiment": "flow cytometry, HEK-293 cells", "experimental": "as §3, §4"}, "[8]": {"target": "T6, human CD1d expressed on HEK-293 cells (human, UniProt P15813 20-335; P61769 21-119)", "T6 construct": "also called HEK - CD1d", "experiment": "flow cytometry, HEK-293 cells", "experimental": "as §3, §4"}, "[9]": {"target": "T7, human CD1a expressed on cells (human, UniProt P06126 17-327; P61769 21-119)", "T7 construct": "also called HEK - CD1a; C1R - CD1a", "experiment": "flow cytometry, MOLT4 cells, 1 µg/ml antibody", "experimental": "(§5) CD1a-specific antibodies were identified by flow cytometry. Binding to proteins expressed on HEK, C1R and MOLT4 cell lines was assessed. […] The C1R-CD1a, C1R-empty vector and MOLT4 cell lines were washed in 1×PBS on the day required. All cell lines were counted and resuspended in 1×PBS and then stained for 30 minutes at 37° C. using the DiI or DiO cellular stains (Invitrogen). Cells were washed with flow cytometry buffer (1% bovine serum albumin, 2 mM EDTA and 0.1% sodium azide in PBS) before mixing 2 DiI-stained and DiO-stained populations together. The cells (20 μl/well) were then added to dilutions of antibody sample (B cell culture supernatant, TAP supernatant, clone supernatant, purified antibody solution) (20 μl/well) and incubated for 1 hour at 4° C. in a flow cytometry assay plate, before being washed with flow cytometry buffer. 10 μl/well of Alexafluor647-conjugated goat anti-species IgG Fc-specific F(ab′)2 fragment (Jackson ImmunoResearch), diluted 1:2500 in flow cytometry buffer, was added and incubated at 4° C. for 30 minutes, followed by washing with wash buffer. The fluorescence intensity was then measured on an iQue screener PLUS.\n(§6) Binding was quantified as fold change in fluorescence intensity geomean over background assessed by flow cytometry."}, "[10]": {"target": "T7, human CD1a expressed on cells", "experiment": "flow cytometry, HEK-293 cells, 1 µg/ml antibody", "experimental": "as §3, §4"}, "[11]": {"target": "T4, human CD1b expressed on HEK-293 cells", "experiment": "flow cytometry, HEK-293 cells, 1 µg/ml antibody", "experimental": "as §3, §4"}, "[12]": {"target": "T5, human CD1c expressed on HEK-293 cells", "experiment": "flow cytometry, HEK-293 cells, 1 µg/ml antibody", "experimental": "as §3, §4"}, "[13]": {"target": "T6, human CD1d expressed on HEK-293 cells", "experiment": "flow cytometry, HEK-293 cells, 1 µg/ml antibody", "experimental": "as §3, §4"}, "[14]": {"target": "T7, human CD1a expressed on cells", "experiment": "flow cytometry, C1R cells, 0.0316 µg/ml antibody", "experimental": "as §3, §6"}, "[15]": {"target": "T8, Cynomolgus monkey CD1a expressed on HEK-293 cells (Cynomolgus monkey, UniProt A0A2K5VQ68 17-326)", "T8 sequence (A0A2K5VQ68 entry or part of it)": "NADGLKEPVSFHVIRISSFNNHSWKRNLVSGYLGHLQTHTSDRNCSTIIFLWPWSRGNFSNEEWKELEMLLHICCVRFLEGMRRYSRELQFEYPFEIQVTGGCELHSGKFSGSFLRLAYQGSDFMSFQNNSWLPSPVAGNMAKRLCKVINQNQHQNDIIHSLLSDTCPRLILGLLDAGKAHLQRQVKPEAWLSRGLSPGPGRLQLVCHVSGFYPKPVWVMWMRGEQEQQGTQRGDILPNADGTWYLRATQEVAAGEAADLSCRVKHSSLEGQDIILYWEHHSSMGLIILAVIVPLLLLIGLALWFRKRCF", "experiment": "flow cytometry, HEK-293 cells, 10 µg/ml antibody", "experimental": "as §3, §6"}, "[16]": {"target": "T7, human CD1a expressed on cells", "experiment": "flow cytometry, HEK-293 cells, 0.1 µg/ml antibody", "experimental": "as §3, §4"}, "[17]": {"target": "T4, human CD1b expressed on HEK-293 cells", "experiment": "flow cytometry, HEK-293 cells, 0.1 µg/ml antibody", "experimental": "as §3, §4"}, "[18]": {"target": "T5, human CD1c expressed on HEK-293 cells", "experiment": "flow cytometry, HEK-293 cells, 0.1 µg/ml antibody", "experimental": "as §3, §4"}, "[19]": {"target": "T6, human CD1d expressed on HEK-293 cells", "experiment": "flow cytometry, HEK-293 cells, 0.1 µg/ml antibody", "experimental": "as §3, §4"}, "[20]": {"target": "T7, human CD1a expressed on cells", "experiment": "flow cytometry, MOLT4 cells, 0.0316 µg/ml antibody", "experimental": "as §5, §6"}, "[21]": {"target": "T8, Cynomolgus monkey CD1a expressed on …", "experiment": "flow cytometry, HEK-293 cells, 0.01 µg/ml antibody", "experimental": "as §3, §6"}, "[22]": {"target": "T7, human CD1a expressed on cells", "experiment": "flow cytometry, HEK-293 cells, 0.0316 µg/ml antibody", "experimental": "as §3, §4"}, "[23]": {"target": "T4, human CD1b expressed on HEK-293 cells", "experiment": "flow cytometry, HEK-293 cells, 0.0316 µg/ml antibody", "experimental": "as §3, §4"}, "[24]": {"target": "T5, human CD1c expressed on HEK-293 cells", "experiment": "flow cytometry, HEK-293 cells, 0.0316 µg/ml antibody", "experimental": "as §3, §4"}, "[25]": {"target": "T6, human CD1d expressed on HEK-293 cells", "experiment": "flow cytometry, HEK-293 cells, 0.0316 µg/ml antibody", "experimental": "as §3, §4"}},
  "data": [
    {"binder": "116 (VR12117) (antibody, V domains shown, also called OX116) VH: QSVEESGGRLVTPGTPLTLTCTVSGFSLSNYAMSWVRQAPGKGLEWIGIIYTTGFTYYASWVKGRFTISKTSTTVDLKITSPTTEDTATYFCARGLATYVSPPTRLDLWGQGTLVTVSS VL: AQVLTQTPSPVSAAVGGTVTINCQASQSIYNSKNLAWYQQKPGQPPKLLIYSASTLASGVPSRFKGSGSGTQFTLTISDLECDDAATYYCQGEFSCSSVDCATFGGGTEVVVK", "values": [
      {"measurement": "Optical Density (OD)", "setting": "[1]", "value": 1.47, "unit": "OD"},
      {"measurement": "Optical Density (OD)", "setting": "[2]", "value": 1.4, "unit": "OD"},
      {"measurement": "Optical Density (OD)", "setting": "[3]", "value": 0.16, "unit": "OD"},
      {"measurement": "Optical Density (OD)", "setting": "[4]", "value": 1.07, "unit": "OD"},
      {"measurement": "Optical Density (OD)", "setting": "[5]", "value": 1.35, "unit": "OD"},
      {"measurement": "binding result", "setting": "[6]", "value": "no binding (tested: 100 µg/ml (highest tested))"},
      {"measurement": "binding result", "setting": "[7]", "value": "no binding (tested: 100 µg/ml (highest tested))"},
      {"measurement": "binding result", "setting": "[8]", "value": "no binding (tested: 100 µg/ml (highest tested))"},
      {"measurement": "Fluorescence Intensity Geomean (normalized to background)", "setting": "[9]", "value": 30.6, "unit": "fold over background"},
      {"measurement": "Fluorescence Intensity Geomean (normalized to background)", "setting": "[10]", "value": 48.2, "unit": "fold over background"},
      {"measurement": "Fluorescence Intensity Geomean (normalized to background)", "setting": "[11]", "value": 1.1, "unit": "fold over background"},
      {"measurement": "Fluorescence Intensity Geomean (normalized to background)", "setting": "[12]", "value": 1.1, "unit": "fold over background"},
      {"measurement": "Fluorescence Intensity Geomean (normalized to background)", "setting": "[13]", "value": 1, "unit": "fold over background"},
      {"measurement": "Fluorescence Intensity Geomean (normalized to background)", "setting": "[14]", "value": 24.1, "unit": "fold over background"},
      {"measurement": "Fluorescence Intensity Geomean (normalized to background)", "setting": "[15]", "value": 1.7, "unit": "fold over background"},
      {"measurement": "Fluorescence Intensity Geomean (normalized to background)", "setting": "[16]", "value": 26.7, "unit": "fold over background"},
      {"measurement": "Fluorescence Intensity Geomean (normalized to background)", "setting": "[17]", "value": 1, "unit": "fold over background"},
      {"measurement": "Fluorescence Intensity Geomean (normalized to background)", "setting": "[18]", "value": 1, "unit": "fold over background"},
      {"measurement": "Fluorescence Intensity Geomean (normalized to background)", "setting": "[19]", "value": 1.1, "unit": "fold over background"},
      {"measurement": "Fluorescence Intensity Geomean (normalized to background)", "setting": "[20]", "value": 14.9, "unit": "fold over background"},
      {"measurement": "Fluorescence Intensity Geomean (normalized to background)", "setting": "[21]", "value": 1, "unit": "fold over background"},
      {"measurement": "Fluorescence Intensity Geomean (normalized to background)", "setting": "[22]", "value": 15.7, "unit": "fold over background"},
      {"measurement": "Fluorescence Intensity Geomean (normalized to background)", "setting": "[23]", "value": 1, "unit": "fold over background"},
      {"measurement": "Fluorescence Intensity Geomean (normalized to background)", "setting": "[24]", "value": 1, "unit": "fold over background"},
      {"measurement": "Fluorescence Intensity Geomean (normalized to background)", "setting": "[25]", "value": 1, "unit": "fold over background"}
    ]}
  ]
}
